Assay results as given in patent US20170368208A1, “CANCER IMAGING AGENT” (ENDOCYTE, INC., priority 2015, published 2017).
*1 amine or outer side, *2 acyl side, *3 side chain or, on linkers, in order; H or OH if unused. Where a SMILES comes first, the peptide text is derived from it. Side-chain parts run from the residue outwards. [ ]: non-standard residue; d: D form. ξ: configuration not given here. γGlu = O=C(O)[C@H](CCC(=O)[*:2])N[*:1]; ξE = NC(CCC(=O)O)C(=O)O; Dap = NC[C@H](N)C(=O)O; Aoc = NCCCCCCCC(=O)O; CO = O=C([*:1])[*:2]

Assay: Radiochemical purity and stability of 99mTc-Compound II after room temperature labelling of kit formulations (radio-HPLC)
Type: physicochemical
Details: 0.1 mg tin chloride
Method: A Compound II kit vial from Example 2 was removed from the refrigerator and allowed to warm to room temperature (17-27° C.) for 15-30 min. The vial was put into a suitable radioactive shielding container. One to Two milliliter (≦50 mCi) of ^99mTc pertechnetate injection was added to the vial using a lead shielded syringe. Before removing the syringe from the vial, equal volume of headspace was withdrawn in order to normalize the pressure inside the vial. The vial was gently swirled to completely dissolve the powder and then allowed to stand at ambient temperature (17-27° C.) for 15 minutes. 5-6 mL of 0.9% sodium chloride injection, USP, was then added to the vial. The labeled solution was stored at room temperature (17-27° C.) and used within 6 hours of preparation. The Radio-HPLC system used for the following experiment consisted of a Waters 600 intelligent pump, a Bioscan Flow-Count radiodetector, and a Waters Nova-Pak C18 (3.9×150 mm) column, using Laura v1.5 radiochromatogram software. 1-5 μL of the ^99mTc-Compound II sample was injected into the HPLC and eluted with an aqueous mobile phase 0.1% trifluoroacetic acid in water (A) and Acetonitrile (B) at a linear gradient of 25% B to 35% B over 20 minutes at a flow rate of 1 mL/min. […] The radiochemical purity of ^99mTc-Compound II was calculated as follows: Radiochemical purity=isomer A %+isomer B % (FIG. 1) Using the methods described herein, Compound II was subjected to room temperature labelling at varying pH. Using the methods described herein, Compound II was subjected to room temperature labelling with varying amounts of EDTA. Using the methods described herein, Compound II was subjected to room temperature labelling with varying amounts of sodium gluconate.

N[C@@H](CNC(=O)[C@H](Cc1ccccc1)NC(=O)[C@H](Cc1ccccc1)NC(=O)CCCCCCCNC(=O)CC[C@H](NC(=O)NC(CCC(=O)O)C(=O)O)C(=O)O)C(=O)N[C@@H](CC(=O)O)C(=O)N[C@@H](CS)C(=O)O (stereo partly drawn) [EC0652] (H-[Dap]([Phe-Phe-Aoc-γGlu-CO-ξE])-Asp-Cys-OH)
RCP (%) Time (6 Hr) (kit 0.1 mg EC0652, 1 mg sodium gluconate, 0.3 mg EDTA, pH 6.8, 6 Hr): 91.7%
RCP (%) Time (6 Hr) (kit 0.1 mg EC0652, 20 mg sodium gluconate, 0.3 mg EDTA, pH 6.8, 6 Hr): 97.9%
RCP (%) Time (0 Hr) (kit 0.1 mg EC0652, 25 mg sodium gluconate, 0 mg EDTA, pH 6.8, 0 Hr): 85.37%
RCP (%) Time (6 Hr) (kit 0.1 mg EC0652, 25 mg sodium gluconate, 0 mg EDTA, pH 6.8, 6 Hr): 88.06%
RCP (%) Time (0 Hr) (kit 0.1 mg EC0652, 25 mg sodium gluconate, 0.005 mg EDTA, pH 6.8, 0 Hr): 83.69%
RCP (%) Time (6 Hr) (kit 0.1 mg EC0652, 25 mg sodium gluconate, 0.005 mg EDTA, pH 6.8, 6 Hr): 74.46%
RCP (%) Time (0 Hr) (kit 0.1 mg EC0652, 25 mg sodium gluconate, 0.01 mg EDTA, pH 6.8, 0 Hr): 85.92%
RCP (%) Time (6 Hr) (kit 0.1 mg EC0652, 25 mg sodium gluconate, 0.01 mg EDTA, pH 6.8, 6 Hr): 94.03%
RCP (%) Time (0 Hr) (kit 0.1 mg EC0652, 25 mg sodium gluconate, 0.1 mg EDTA, pH 6.8, 0 Hr): 95.77%
RCP (%) Time (6 Hr) (kit 0.1 mg EC0652, 25 mg sodium gluconate, 0.1 mg EDTA, pH 6.8, 6 Hr): 95.33%
RCP (%) Time (0 Hr) (kit 0.1 mg EC0652, 25 mg sodium gluconate, 0.30 mg EDTA, pH 6.8, 0 Hr (Table 5)): 97.02%
RCP (%) Time (6 Hr) (kit 0.1 mg EC0652, 25 mg sodium gluconate, 0.30 mg EDTA, pH 6.8, 6 Hr (Table 5)): 97.49%
RCP (%) Time (6 Hr) (kit 0.1 mg EC0652, 25 mg sodium gluconate, 0.3 mg EDTA, pH 6.8, 6 Hr (Table 6)): 98.5%
Radiochemical Purity (%) Time (0 Hr) (kit 0.1 mg EC0652, 25 mg sodium gluconate, 0.3 mg EDTA, pH 5.1, 0 Hr after room temperature 99mTc labelling): 97.7%
Radiochemical Purity (%) Time (6 Hr) (kit 0.1 mg EC0652, 25 mg sodium gluconate, 0.3 mg EDTA, pH 5.1, 6 Hr after room temperature 99mTc labelling): 85.5%
Radiochemical Purity (%) Time (0 Hr) (kit 0.1 mg EC0652, 25 mg sodium gluconate, 0.3 mg EDTA, pH 6.2, 0 Hr): 96.8%
Radiochemical Purity (%) Time (6 Hr) (kit 0.1 mg EC0652, 25 mg sodium gluconate, 0.3 mg EDTA, pH 6.2, 6 Hr): 94.1%
Radiochemical Purity (%) Time (0 Hr) (kit 0.1 mg EC0652, 25 mg sodium gluconate, 0.3 mg EDTA, pH 6.8, 0 Hr (Table 3)): 97.4%
Radiochemical Purity (%) Time (6 Hr) (kit 0.1 mg EC0652, 25 mg sodium gluconate, 0.3 mg EDTA, pH 6.8, 6 Hr (Table 3)): 94.8%
Radiochemical Purity (%) Time (0 Hr) (kit 0.1 mg EC0652, 25 mg sodium gluconate, 0.3 mg EDTA, pH 7.4, 0 Hr): 96.5%
Radiochemical Purity (%) Time (6 Hr) (kit 0.1 mg EC0652, 25 mg sodium gluconate, 0.3 mg EDTA, pH 7.4, 6 Hr): 96.0%
RCP (%) Time (0 Hr) (kit 0.1 mg EC0652, 25 mg sodium gluconate, 1.0 mg EDTA, pH 6.8, 0 Hr): 96.69%
RCP (%) Time (6 Hr) (kit 0.1 mg EC0652, 25 mg sodium gluconate, 1.0 mg EDTA, pH 6.8, 6 Hr): 96.87%
RCP (%) Time (6 Hr) (kit 0.1 mg EC0652, 30 mg sodium gluconate, 0.3 mg EDTA, pH 6.8, 6 Hr): 97.0%
RCP (%) Time (6 Hr) (kit 0.1 mg EC0652, 50 mg sodium gluconate, 0.3 mg EDTA, pH 6.8, 6 Hr): 98.0%
